To fix the notation:
B5: PVR (receptor, human, UniProt P15151 21-343, looked up)
soluble query ectodomain: WPPPGTGDVVVQAPTQVPGFLGDSVTLPCYLQVPNMEVTHVSQLTWARHGESGSMAVFHQTQGPSYSESKRLEFVAARLGAELRNASLRMFGLRVEDEGNYTCLFVTFPQGSRSVDIWLRVLAKPQNTAEVQKVQLTGEPVPMARCVSTGGRPPAQITWHSDLGGMPNTSQVPGFLSGTVTVTSLWILVPSSQVDGKNVTCKVEHESFEKPQLLTVNLTVYYPPEVSISGYDNNWYLGQNEATLTCDARSNPEPTGYNWSTTMGPLPPFAVAQGAQLLIRPVDKPINTTLICNVTNALGARQAELTVQVKEGPPSEHSGISRN
modifications: biotinylated
notes: extracellular domain; also called poliovirus receptor; monomeric or tetrameric PVR ectodomain

The target in one test is T1, PTPRS expressed on cells (human, UniProt Q13332 30-1948).
T1 construct: whole, on cells; also called receptor-type tyrosine-protein phosphatase S
In words: cell surface interaction assay: streptavidin-tetramerized biotinylated ECD on transfected cells, immunofluorescence.

The next test deals with T2, PTPRD expressed on cells (human, UniProt P23468 21-1912).
T2 construct: whole, on cells; also called receptor-type tyrosine-protein phosphatase delta
The description is as above.

Test [1] deals with B5. In words: cell surface binding of monomeric or streptavidin-tetramerised PVR ectodomain to TIGIT-expressing cells, normalized fluorescence intensity.
Test [2] has as its target T3, LRRC4B expressed on cells (human, UniProt Q9NT99 36-713).
T3 construct: whole, on cells; C-terminally tagged in the co-IP; also called NGL-3; LRRC4B-FLAG
T3 sequence (looked up): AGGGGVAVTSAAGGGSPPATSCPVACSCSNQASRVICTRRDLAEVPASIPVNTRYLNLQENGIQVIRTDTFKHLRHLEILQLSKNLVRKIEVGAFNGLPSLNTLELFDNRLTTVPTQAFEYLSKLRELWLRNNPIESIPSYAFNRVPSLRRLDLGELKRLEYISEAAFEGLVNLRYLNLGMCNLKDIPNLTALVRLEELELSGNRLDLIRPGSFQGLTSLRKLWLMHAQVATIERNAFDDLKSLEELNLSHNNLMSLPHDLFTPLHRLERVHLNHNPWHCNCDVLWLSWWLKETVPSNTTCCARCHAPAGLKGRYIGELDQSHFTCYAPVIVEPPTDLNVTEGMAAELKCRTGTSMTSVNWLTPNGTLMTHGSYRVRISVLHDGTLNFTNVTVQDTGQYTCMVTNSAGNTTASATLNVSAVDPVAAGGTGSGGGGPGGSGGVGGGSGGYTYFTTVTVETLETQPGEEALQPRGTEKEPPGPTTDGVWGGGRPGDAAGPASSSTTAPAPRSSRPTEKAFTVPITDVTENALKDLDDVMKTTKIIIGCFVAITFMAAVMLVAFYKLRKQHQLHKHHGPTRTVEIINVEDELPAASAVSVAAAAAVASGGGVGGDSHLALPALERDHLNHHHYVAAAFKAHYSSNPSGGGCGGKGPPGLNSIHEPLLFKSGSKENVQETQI
The experiment in a line: cell surface interaction assay: streptavidin-tetramerized biotinylated ECD on transfected cells, immunofluorescence.

Test [3] concerns the target T4, LILRB1 expressed on cells (human, UniProt Q8NHL6 24-650).
T4 construct: whole, on cells; C-terminally tagged in the co-IP; also called LILRB1-FLAG
The experiment in a line: cell surface interaction assay: ECD tetramer on transfected cells (FIG. 5N).

Another test concerns the target T5, CD96 (human, UniProt P40200).
T5 construct: expressed on cells; also called CD96 expressed on cells
T5 sequence (cell-surface-expressed binding partner, looked up): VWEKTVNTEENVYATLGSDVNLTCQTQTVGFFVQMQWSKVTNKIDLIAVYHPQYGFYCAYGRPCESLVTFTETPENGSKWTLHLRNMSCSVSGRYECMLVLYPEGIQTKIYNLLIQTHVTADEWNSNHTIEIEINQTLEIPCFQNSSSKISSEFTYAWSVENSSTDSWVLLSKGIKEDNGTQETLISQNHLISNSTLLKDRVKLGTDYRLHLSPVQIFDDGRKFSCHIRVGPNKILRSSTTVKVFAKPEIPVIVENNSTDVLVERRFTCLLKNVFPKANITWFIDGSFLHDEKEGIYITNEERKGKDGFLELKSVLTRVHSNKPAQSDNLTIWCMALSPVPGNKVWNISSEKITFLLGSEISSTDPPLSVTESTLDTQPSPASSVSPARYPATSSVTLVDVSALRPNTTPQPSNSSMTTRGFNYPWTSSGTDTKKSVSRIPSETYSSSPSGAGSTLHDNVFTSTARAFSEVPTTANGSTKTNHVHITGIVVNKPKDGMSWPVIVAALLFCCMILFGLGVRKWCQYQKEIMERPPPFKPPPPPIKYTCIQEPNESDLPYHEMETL
The experiment in a line: cell surface binding of monomeric or streptavidin-tetramerised PVR ectodomain to CD96-expressing cells, normalized fluorescence intensity.

A further test deals with T6, UNC5A (human, UniProt Q6ZN44).
T6 construct: expressed on cells; also called UNC5A expressed on cells
T6 sequence (cell-surface-expressed binding partner, looked up): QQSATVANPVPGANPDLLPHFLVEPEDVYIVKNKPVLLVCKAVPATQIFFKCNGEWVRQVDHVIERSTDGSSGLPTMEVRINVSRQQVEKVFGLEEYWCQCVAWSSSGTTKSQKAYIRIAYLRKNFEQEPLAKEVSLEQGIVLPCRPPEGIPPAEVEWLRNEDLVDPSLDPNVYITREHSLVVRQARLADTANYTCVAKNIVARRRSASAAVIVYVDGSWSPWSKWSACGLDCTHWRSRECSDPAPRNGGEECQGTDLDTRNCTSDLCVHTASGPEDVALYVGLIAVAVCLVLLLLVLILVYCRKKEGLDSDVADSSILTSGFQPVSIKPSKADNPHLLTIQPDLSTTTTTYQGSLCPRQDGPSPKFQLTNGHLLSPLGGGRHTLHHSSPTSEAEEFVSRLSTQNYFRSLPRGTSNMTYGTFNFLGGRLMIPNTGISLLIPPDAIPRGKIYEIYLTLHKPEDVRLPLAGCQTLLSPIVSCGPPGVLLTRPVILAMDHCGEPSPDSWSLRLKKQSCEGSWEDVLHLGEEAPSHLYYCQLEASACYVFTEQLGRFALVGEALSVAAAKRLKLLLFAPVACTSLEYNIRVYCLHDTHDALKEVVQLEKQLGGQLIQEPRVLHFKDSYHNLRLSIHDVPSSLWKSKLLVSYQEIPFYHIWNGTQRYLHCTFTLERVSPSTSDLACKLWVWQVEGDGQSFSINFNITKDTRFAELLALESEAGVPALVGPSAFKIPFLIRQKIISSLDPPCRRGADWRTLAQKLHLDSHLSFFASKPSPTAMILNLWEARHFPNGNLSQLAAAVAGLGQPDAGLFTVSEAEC
In words: cell surface interaction assay: query ECD tetramerised with fluorescent streptavidin on transfected cells, immunofluorescence.

Test [4] concerns the target B5. In words: cell surface binding of monomeric or streptavidin-tetramerised PVR ectodomain to CD226-expressing cells, normalized fluorescence intensity.

T4 sequence (Q8NHL6 24-650): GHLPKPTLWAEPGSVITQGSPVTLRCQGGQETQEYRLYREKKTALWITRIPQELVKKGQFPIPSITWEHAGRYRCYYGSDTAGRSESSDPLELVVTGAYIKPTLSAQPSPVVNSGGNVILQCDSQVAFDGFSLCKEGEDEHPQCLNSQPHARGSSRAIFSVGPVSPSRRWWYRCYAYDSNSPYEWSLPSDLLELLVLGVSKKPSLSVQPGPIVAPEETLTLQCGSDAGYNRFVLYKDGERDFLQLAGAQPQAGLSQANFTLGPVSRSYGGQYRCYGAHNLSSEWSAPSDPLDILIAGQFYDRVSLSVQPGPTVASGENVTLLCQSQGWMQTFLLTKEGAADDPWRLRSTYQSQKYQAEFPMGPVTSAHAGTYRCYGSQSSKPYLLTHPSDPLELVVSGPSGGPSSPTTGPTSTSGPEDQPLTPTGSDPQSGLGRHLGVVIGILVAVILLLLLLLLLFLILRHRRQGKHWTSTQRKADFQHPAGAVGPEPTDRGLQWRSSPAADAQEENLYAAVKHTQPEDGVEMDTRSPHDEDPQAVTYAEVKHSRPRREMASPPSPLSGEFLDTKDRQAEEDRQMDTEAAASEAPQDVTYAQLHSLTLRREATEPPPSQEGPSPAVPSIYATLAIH
T2 sequence (P23468 21-1912): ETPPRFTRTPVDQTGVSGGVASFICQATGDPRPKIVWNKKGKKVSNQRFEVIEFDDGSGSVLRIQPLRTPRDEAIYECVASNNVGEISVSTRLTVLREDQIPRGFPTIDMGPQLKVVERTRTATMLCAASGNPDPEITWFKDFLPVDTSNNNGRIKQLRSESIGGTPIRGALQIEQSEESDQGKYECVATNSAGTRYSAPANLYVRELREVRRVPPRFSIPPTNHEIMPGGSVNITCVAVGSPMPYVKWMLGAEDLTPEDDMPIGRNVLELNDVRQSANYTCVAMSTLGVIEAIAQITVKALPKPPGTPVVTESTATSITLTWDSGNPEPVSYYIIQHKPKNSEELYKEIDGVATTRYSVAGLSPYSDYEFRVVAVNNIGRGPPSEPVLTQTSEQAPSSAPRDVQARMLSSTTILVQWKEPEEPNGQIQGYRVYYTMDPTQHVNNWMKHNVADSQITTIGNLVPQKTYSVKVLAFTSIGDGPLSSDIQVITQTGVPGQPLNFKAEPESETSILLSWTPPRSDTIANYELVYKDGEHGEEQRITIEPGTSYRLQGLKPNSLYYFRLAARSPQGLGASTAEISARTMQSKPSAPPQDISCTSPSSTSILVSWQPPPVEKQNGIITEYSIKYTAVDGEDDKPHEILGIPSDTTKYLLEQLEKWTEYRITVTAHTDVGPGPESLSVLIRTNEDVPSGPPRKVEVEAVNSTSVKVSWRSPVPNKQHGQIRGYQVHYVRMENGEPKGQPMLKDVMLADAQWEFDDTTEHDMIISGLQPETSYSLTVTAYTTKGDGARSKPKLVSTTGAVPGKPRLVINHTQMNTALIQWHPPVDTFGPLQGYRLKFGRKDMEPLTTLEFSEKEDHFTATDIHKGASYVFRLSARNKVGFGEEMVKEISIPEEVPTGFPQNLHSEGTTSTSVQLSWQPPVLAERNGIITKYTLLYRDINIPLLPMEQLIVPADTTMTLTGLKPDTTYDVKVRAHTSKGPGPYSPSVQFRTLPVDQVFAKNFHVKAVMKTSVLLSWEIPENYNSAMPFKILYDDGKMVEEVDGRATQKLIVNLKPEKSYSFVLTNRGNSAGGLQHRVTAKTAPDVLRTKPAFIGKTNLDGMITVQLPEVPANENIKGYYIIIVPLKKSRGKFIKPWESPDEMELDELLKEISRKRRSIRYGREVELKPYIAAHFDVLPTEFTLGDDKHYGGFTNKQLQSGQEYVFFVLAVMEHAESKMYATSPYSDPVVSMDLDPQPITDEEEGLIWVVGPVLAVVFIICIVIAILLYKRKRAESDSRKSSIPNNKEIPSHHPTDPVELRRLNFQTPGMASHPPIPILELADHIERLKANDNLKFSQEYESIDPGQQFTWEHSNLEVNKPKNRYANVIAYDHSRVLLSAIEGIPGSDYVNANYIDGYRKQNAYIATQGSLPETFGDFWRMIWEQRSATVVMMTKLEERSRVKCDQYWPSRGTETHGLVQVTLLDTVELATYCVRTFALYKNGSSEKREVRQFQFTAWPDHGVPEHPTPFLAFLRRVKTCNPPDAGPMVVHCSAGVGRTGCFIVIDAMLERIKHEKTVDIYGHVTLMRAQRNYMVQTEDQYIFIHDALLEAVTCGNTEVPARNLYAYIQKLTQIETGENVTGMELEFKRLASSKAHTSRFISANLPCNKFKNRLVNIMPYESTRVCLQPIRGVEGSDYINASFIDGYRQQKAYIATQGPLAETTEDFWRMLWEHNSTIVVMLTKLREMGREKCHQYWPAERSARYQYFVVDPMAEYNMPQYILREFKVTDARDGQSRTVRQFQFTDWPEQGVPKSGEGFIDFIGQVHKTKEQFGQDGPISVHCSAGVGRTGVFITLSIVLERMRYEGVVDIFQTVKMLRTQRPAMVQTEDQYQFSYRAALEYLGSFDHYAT
T1 sequence (Q13332 30-1948): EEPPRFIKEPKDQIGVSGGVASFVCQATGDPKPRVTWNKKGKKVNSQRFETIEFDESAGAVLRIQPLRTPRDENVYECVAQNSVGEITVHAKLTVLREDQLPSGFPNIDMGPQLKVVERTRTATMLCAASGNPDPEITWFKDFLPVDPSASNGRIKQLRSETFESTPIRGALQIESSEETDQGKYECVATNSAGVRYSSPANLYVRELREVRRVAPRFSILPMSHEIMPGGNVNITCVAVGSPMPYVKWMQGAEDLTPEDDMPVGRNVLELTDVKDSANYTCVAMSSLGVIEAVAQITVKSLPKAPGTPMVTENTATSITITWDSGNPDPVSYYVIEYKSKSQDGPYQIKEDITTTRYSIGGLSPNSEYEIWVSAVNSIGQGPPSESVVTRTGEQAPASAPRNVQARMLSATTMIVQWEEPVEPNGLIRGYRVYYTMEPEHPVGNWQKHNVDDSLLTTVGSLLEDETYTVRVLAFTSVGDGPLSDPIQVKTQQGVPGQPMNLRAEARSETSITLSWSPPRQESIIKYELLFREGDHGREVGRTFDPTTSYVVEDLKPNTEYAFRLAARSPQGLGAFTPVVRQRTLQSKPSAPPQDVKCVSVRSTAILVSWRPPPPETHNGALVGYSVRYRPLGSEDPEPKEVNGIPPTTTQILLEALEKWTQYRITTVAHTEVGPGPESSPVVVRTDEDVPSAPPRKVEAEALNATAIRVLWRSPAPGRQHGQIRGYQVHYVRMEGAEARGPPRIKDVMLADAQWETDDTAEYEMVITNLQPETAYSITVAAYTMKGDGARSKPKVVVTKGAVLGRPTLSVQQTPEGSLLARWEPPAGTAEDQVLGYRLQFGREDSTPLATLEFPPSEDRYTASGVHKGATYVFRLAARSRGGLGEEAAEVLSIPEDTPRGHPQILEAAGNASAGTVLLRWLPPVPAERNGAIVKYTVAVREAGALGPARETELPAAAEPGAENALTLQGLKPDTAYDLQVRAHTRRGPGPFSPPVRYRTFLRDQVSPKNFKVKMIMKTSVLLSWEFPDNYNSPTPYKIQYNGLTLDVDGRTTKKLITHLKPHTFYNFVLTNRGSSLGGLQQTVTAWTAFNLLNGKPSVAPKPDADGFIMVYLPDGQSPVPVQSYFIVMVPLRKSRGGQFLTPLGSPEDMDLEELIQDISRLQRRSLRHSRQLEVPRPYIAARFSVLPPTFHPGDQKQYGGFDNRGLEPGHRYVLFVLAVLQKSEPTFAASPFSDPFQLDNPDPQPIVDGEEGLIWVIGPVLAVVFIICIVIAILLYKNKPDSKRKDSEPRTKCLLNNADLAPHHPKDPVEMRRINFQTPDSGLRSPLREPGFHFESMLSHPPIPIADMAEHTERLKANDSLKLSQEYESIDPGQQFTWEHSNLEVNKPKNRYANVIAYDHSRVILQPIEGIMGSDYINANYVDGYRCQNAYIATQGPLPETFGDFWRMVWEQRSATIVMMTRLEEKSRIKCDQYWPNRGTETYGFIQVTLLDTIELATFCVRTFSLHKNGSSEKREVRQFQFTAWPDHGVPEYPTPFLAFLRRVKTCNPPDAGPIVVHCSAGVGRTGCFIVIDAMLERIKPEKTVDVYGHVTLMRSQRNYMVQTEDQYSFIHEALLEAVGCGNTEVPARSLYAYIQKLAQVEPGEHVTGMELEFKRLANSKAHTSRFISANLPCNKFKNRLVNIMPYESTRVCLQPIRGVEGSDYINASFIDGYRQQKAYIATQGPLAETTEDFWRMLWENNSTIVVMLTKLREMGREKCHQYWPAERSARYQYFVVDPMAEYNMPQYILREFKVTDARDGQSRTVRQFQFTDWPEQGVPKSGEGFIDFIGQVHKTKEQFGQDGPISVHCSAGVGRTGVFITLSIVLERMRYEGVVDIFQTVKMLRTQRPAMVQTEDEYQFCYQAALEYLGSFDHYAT

B1: SLITRK3 extracellular domain (receptor, human, UniProt O94933 29-654, looked up)
chain: TPIPLIEDSEEIDEPCFDPCYCEVKESLFHIHCDSKGFTNISQITEFWSRPFKLYLQRNSMRKLYTNSFLHLNNAVSINLGNNALQDIQTGAFNGLKILKRLYLHENKLDVFRNDTFLGLESLEYLQADYNVIKRIESGAFRNLSKLRVLILNDNLIPMLPTNLFKAVSLTHLDLRGNRLKVLFYRGMLDHIGRSLMELQLEENPWNCTCEIVQLKSWLERIPYTALVGDITCETPFHFHGKDLREIRKTELCPLLSDSEVEASLGIPHSSSSKENAWPTKPSSMLSSVHFTASSVEYKSSNKQPKPTKQPRTPRPPSTSQALYPGPNQPPIAPYQTRPPIPIICPTGCTCNLHINDLGLTVNCKERGFNNISELLPRPLNAKKLYLSSNLIQKIYRSDFWNFSSLDLLHLGNNRISYVQDGAFINLPNLKSLFLNGNDIEKLTPGMFRGLQSLHYLYFEFNVIREIQPAAFSLMPNLKLLFLNNNLLRTLPTDAFAGTSLARLNLRKNYFLYLPVAGVLEHLNAIVQIDLNENPWDCTCDLVPFKQWIETISSVSVVGDVLCRSPENLTHRDVRTIELEVLCPEMLHVAPAGESPAQPGDSHLIGAPTSASPYEFSPPGGPVPLS
notes: extracellular domain; Streptavidin tetramer in cell assay; ECD-Fc prey in the variant screen
As to B1, the binding result with PTPRS expressed on cells and with PTPRD expressed on cells was “binds” each time.

B2: TIGIT (receptor, human, UniProt Q495A1 22-244, looked up)
cell-surface-expressed binding partner: MMTGTIETTGNISAEKGGSIILQCHLSSTTAQVTQVNWEQQDQLLAICNADLGWHISPSFKDRVAPGPGLGLTLQSLTVNDTGEYFCIYHTYPDGTYTGRIFLEVLESSVAEHGARFQIPLLGAMAATLVVICTAVIVVVALTRKKKALRIHSVEGDLRRKSAGQEEWSPSAPSPPGSCVQAEAAPAGLCGEQRGEDCAELHDYFNVLSYRSLGNCSFFTETG
notes: expressed on cells; also called TIGIT expressed on cells
As to B2, in the test with PVR [1], the binding result is on record as “binds”.

B3: BTN3A3 extracellular domain (receptor)
chain: not shown
notes: extracellular domain; Soluble query, streptavidin tetramer
In the case of B3, in test [2], the binding result is reported as “binds”.

B4: LILRA5 extracellular domain (receptor)
chain: not shown
notes: as for B3
B4: the binding result in test [3] was “binds”.
Consider B5, for which, in the test with CD96, the binding result was “binds”.

B6: EDAR extracellular domain (receptor, human, UniProt Q9UNE0 27-187, looked up)
chain: EYSNCGENEYYNQTTGLCQECPPCGPGEEPYLSCGYGTKDEDYGCVPCPAEKFSKGGYQICRRHKDCEGFFRATVLTPGDMENDAECGPCLPGYYMLENRPRNIYGMVCYSCLLAPPNTKECVGATSGASANFPGTSGSSTLSPFQHAHKELSGQGHLATA
notes: as for B3
As to B6, in test [3], the binding result is listed as “binds”.

B7: BTN3A1 extracellular domain (receptor)
chain: not shown
notes: as for B3
As to B7, the binding result in test [2] is given as “binds”.

B8: FLRT2 (receptor, human, UniProt O43155 36-541, looked up)
soluble query ectodomain: CPSVCRCDRNFVYCNERSLTSVPLGIPEGVTVLYLHNNQINNAGFPAELHNVQSVHTVYLYGNQLDEFPMNLPKNVRVLHLQENNIQTISRAALAQLLKLEELHLDDNSISTVGVEDGAFREAISLKLLFLSKNHLSSVPVGLPVDLQELRVDENRIAVISDMAFQNLTSLERLIVDGNLLTNKGIAEGTFSHLTKLKEFSIVRNSLSHPPPDLPGTHLIRLYLQDNQINHIPLTAFSNLRKLERLDISNNQLRMLTQGVFDNLSNLKQLTARNNPWFCDCSIKWVTEWLKYIPSSLNVRGFMCQGPEQVRGMAVRELNMNLLSCPTTTPGLPLFTPAPSTASPTTQPPTLSIPNPSRSYTPPTPTTSKLPTIPDWDGRERVTPPISERIQLSIHFVNDTSIQVSWLSLFTVMAYKLTWVKMGHSLVGGIVQERIVSGEKQHLSLVNLEPRSTYRICLVPLDAFNYRAVEDTICSEATTHASYLNNGSNTASSHEQTTSHSMGSPF
modifications: biotinylated
notes: extracellular domain; also called soluble query
As to B8, the binding result with UNC5A is listed as “binds”.

B9: CD226 (receptor, human, UniProt Q15762 19-336, looked up)
cell-surface-expressed binding partner: EEVLWHTSVPFAENMSLECVYPSMGILTQVEWFKIGTQQDSIAIFSPTHGMVIRKPYAERVYFLNSTMASNNMTLFFRNASEDDVGYYSCSLYTYPQGTWQKVIQVVQSDSFEAAVPSNSHIVSEPGKNVTLTCQPQMTWPVQAVRWEKIQPRQIDLLTYCNLVHGRNFTSKFPRQIVSNCSHGRWSVIVIPDVTVSDSGLYRCYLQASAGENETFVMRLTVAEGKTDNQYTLFVAGGTVLLLLFVISITTIIVIFLNRRRRRERRDLFTESWDTQKAPNNYRSPISTSQPTNQSMDDTREDIYVNYPTFSRRPKTRV
notes: expressed on cells; also called CD226 expressed on cells
For the molecule B9, the binding result with PVR [4] is “binds”.
